Test results reported in CN116178530A (SHANGHAI JUNSHI BIOSCIENCES CO LTD; JUNMENG BIOSCIENCES CO …, dated 2023).

Target: SARS-CoV-2的野生型RBD蛋白(货号SPD-C82E8，ACRO Biosystems) (SARS-CoV-2, UniProt P0DTC2 319-537)

B1: JS5-10 (antibody, human IgG1, kappa, L234A L235A, V domains shown)
VH: EVQLLESGGGLVQPGGSLRLSCAASGFTFSSYAMSWVRQAPGKGLEWVSAIVGSGGSTYYADSVKGRFIISRDNSKNTLYLQMNSLRAEDTAVYYCAKSLIYGHYDILTGAYYFDYWGQGTLVTVSS
VL: DIQMTQSPSSVSASVGDRVTIPCRASQGIGNWLAWYQQKPGKAPKLLIYAASSLQSGVPSRFSGSGSGTDFTLTISSLQPEDFATYYCQQANSFPPFGQGTRLEIKR
Kd: 2.04 nM | koff: 0.000215 s⁻¹ | kon: 106000 M⁻¹ s⁻¹
